B1: Anti-IL-6 antibody, heavy chain S35H, G66D / light chain WT (antibody, IgG1, V domains shown)
VH: EVQLVESGGGLVQPGGSLRLSCAASGFTFSPFAMHWVRQAPGKGLEWVAKISPGGSWTYYSDTVTDRFTFSLDTSKSTAYLQMNSLRAEDTAVYYCARQLWGYYALDIWGQGTLVTVSS
VL: DIQLTQSPSSLSASVGDRVTITCSASISVSYMYWYQQKPGKAPKLLIYDMSNLASGVPSRFSGSGSGTDFTLTISSLQPEDFATYYCMQWSGYPYTFGQGTKVEIK
notes: IgG1; variable domains only
B2: Anti-IL-6 antibody, heavy chain G66D / light chain WT (antibody, IgG1, V domains shown)
VH: EVQLVESGGGLVQPGGSLRLSCAASGFTFSPFAMSWVRQAPGKGLEWVAKISPGGSWTYYSDTVTDRFTFSLDTSKSTAYLQMNSLRAEDTAVYYCARQLWGYYALDIWGQGTLVTVSS
VL: DIQLTQSPSSLSASVGDRVTITCSASISVSYMYWYQQKPGKAPKLLIYDMSNLASGVPSRFSGSGSGTDFTLTISSLQPEDFATYYCMQWSGYPYTFGQGTKVEIK
notes: IgG1; variable domains only
B3: Anti-IL-6 antibody, heavy chain S35H, G66D, L100D / light chain M32L, M50D, N52S, M88Q (antibody, IgG1, V domains shown)
VH: EVQLVESGGGLVQPGGSLRLSCAASGFTFSPFAMHWVRQAPGKGLEWVAKISPGGSWTYYSDTVTDRFTFSLDTSKSTAYLQMNSLRAEDTAVYYCARQDWGYYALDIWGQGTLVTVSS
VL: DIQLTQSPSSLSASVGDRVTITCSASISVSYLYWYQQKPGKAPKLLIYDDSSLASGVPSRFSGSGSGTDFTLTISSLQPEDFATYYCQQWSGYPYTFGQGTKVEIK
notes: IgG1; variable domains only; VL is variant III
B4: Anti-IL-6 antibody, heavy chain S35H, G66D, L100D / light chain WT (antibody, IgG1, V domains shown)
VH: EVQLVESGGGLVQPGGSLRLSCAASGFTFSPFAMHWVRQAPGKGLEWVAKISPGGSWTYYSDTVTDRFTFSLDTSKSTAYLQMNSLRAEDTAVYYCARQDWGYYALDIWGQGTLVTVSS
VL: DIQLTQSPSSLSASVGDRVTITCSASISVSYMYWYQQKPGKAPKLLIYDMSNLASGVPSRFSGSGSGTDFTLTISSLQPEDFATYYCMQWSGYPYTFGQGTKVEIK
notes: IgG1; variable domains only
B5: Anti-IL-6 antibody, heavy chain S35H, G66D, L100A / light chain WT (antibody, IgG1, V domains shown)
VH: EVQLVESGGGLVQPGGSLRLSCAASGFTFSPFAMHWVRQAPGKGLEWVAKISPGGSWTYYSDTVTDRFTFSLDTSKSTAYLQMNSLRAEDTAVYYCARQAWGYYALDIWGQGTLVTVSS
VL: DIQLTQSPSSLSASVGDRVTITCSASISVSYMYWYQQKPGKAPKLLIYDMSNLASGVPSRFSGSGSGTDFTLTISSLQPEDFATYYCMQWSGYPYTFGQGTKVEIK
notes: IgG1; variable domains only
B6: Anti-IL-6 antibody, heavy chain G66D / light chain M32L, M50D, N52S, M88Q (antibody, IgG1, V domains shown)
VH: EVQLVESGGGLVQPGGSLRLSCAASGFTFSPFAMSWVRQAPGKGLEWVAKISPGGSWTYYSDTVTDRFTFSLDTSKSTAYLQMNSLRAEDTAVYYCARQLWGYYALDIWGQGTLVTVSS
VL: DIQLTQSPSSLSASVGDRVTITCSASISVSYLYWYQQKPGKAPKLLIYDDSSLASGVPSRFSGSGSGTDFTLTISSLQPEDFATYYCQQWSGYPYTFGQGTKVEIK
notes: as for B3
B7: Anti-IL-6 antibody, heavy chain S35H, G66D, L100E / light chain M32L, M50D, N52S, M88Q (antibody, IgG1, V domains shown)
VH: EVQLVESGGGLVQPGGSLRLSCAASGFTFSPFAMHWVRQAPGKGLEWVAKISPGGSWTYYSDTVTDRFTFSLDTSKSTAYLQMNSLRAEDTAVYYCARQEWGYYALDIWGQGTLVTVSS
VL: DIQLTQSPSSLSASVGDRVTITCSASISVSYLYWYQQKPGKAPKLLIYDDSSLASGVPSRFSGSGSGTDFTLTISSLQPEDFATYYCQQWSGYPYTFGQGTKVEIK
notes: as for B3
B8: anti-IL-6 antibody, heavy chain Y103S, light chain WT (antibody, IgG1, V domains shown)
VH: EVQLVESGGGLVQPGGSLRLSCAASGFTFSPFAMSWVRQAPGKGLEWVAKISPGGSWTYYSDTVTGRFTFSLDTSKSTAYLQMNSLRAEDTAVYYCARQLWGSYALDIWGQGTLVTVSS
VL: DIQLTQSPSSLSASVGDRVTITCSASISVSYMYWYQQKPGKAPKLLIYDMSNLASGVPSRFSGSGSGTDFTLTISSLQPEDFATYYCMQWSGYPYTFGQGTKVEIK
notes: Full IgG1 tested; V domains derived as in m2
B9: anti-IL-6 antibody, heavy chain WT, light chain S26K (antibody, IgG1, V domains shown)
VH: EVQLVESGGGLVQPGGSLRLSCAASGFTFSPFAMSWVRQAPGKGLEWVAKISPGGSWTYYSDTVTGRFTFSLDTSKSTAYLQMNSLRAEDTAVYYCARQLWGYYALDIWGQGTLVTVSS
VL: DIQLTQSPSSLSASVGDRVTITCSAKISVSYMYWYQQKPGKAPKLLIYDMSNLASGVPSRFSGSGSGTDFTLTISSLQPEDFATYYCMQWSGYPYTFGQGTKVEIK
notes: as for B8
B10: anti-IL-6 antibody, heavy chain Y104V, light chain WT (antibody, IgG1, V domains shown)
VH: EVQLVESGGGLVQPGGSLRLSCAASGFTFSPFAMSWVRQAPGKGLEWVAKISPGGSWTYYSDTVTGRFTFSLDTSKSTAYLQMNSLRAEDTAVYYCARQLWGYVALDIWGQGTLVTVSS
VL: DIQLTQSPSSLSASVGDRVTITCSASISVSYMYWYQQKPGKAPKLLIYDMSNLASGVPSRFSGSGSGTDFTLTISSLQPEDFATYYCMQWSGYPYTFGQGTKVEIK
notes: as for B8
B11: anti-IL-6 antibody, heavy chain Y103D, light chain WT (antibody, IgG1, V domains shown)
VH: EVQLVESGGGLVQPGGSLRLSCAASGFTFSPFAMSWVRQAPGKGLEWVAKISPGGSWTYYSDTVTGRFTFSLDTSKSTAYLQMNSLRAEDTAVYYCARQLWGDYALDIWGQGTLVTVSS
VL: DIQLTQSPSSLSASVGDRVTITCSASISVSYMYWYQQKPGKAPKLLIYDMSNLASGVPSRFSGSGSGTDFTLTISSLQPEDFATYYCMQWSGYPYTFGQGTKVEIK
notes: as for B8
B12: anti-IL-6 antibody, heavy chain WT, light chain S26H (antibody, IgG1, V domains shown)
VH: EVQLVESGGGLVQPGGSLRLSCAASGFTFSPFAMSWVRQAPGKGLEWVAKISPGGSWTYYSDTVTGRFTFSLDTSKSTAYLQMNSLRAEDTAVYYCARQLWGYYALDIWGQGTLVTVSS
VL: DIQLTQSPSSLSASVGDRVTITCSAHISVSYMYWYQQKPGKAPKLLIYDMSNLASGVPSRFSGSGSGTDFTLTISSLQPEDFATYYCMQWSGYPYTFGQGTKVEIK
notes: as for B8
B13: anti-IL-6 antibody, heavy chain WT, light chain S26G (antibody, IgG1, V domains shown)
VH: EVQLVESGGGLVQPGGSLRLSCAASGFTFSPFAMSWVRQAPGKGLEWVAKISPGGSWTYYSDTVTGRFTFSLDTSKSTAYLQMNSLRAEDTAVYYCARQLWGYYALDIWGQGTLVTVSS
VL: DIQLTQSPSSLSASVGDRVTITCSAGISVSYMYWYQQKPGKAPKLLIYDMSNLASGVPSRFSGSGSGTDFTLTISSLQPEDFATYYCMQWSGYPYTFGQGTKVEIK
notes: as for B8
B14: anti-IL-6 antibody, heavy chain WT, light chain S28E (antibody, IgG1, V domains shown)
VH: EVQLVESGGGLVQPGGSLRLSCAASGFTFSPFAMSWVRQAPGKGLEWVAKISPGGSWTYYSDTVTGRFTFSLDTSKSTAYLQMNSLRAEDTAVYYCARQLWGYYALDIWGQGTLVTVSS
VL: DIQLTQSPSSLSASVGDRVTITCSASIEVSYMYWYQQKPGKAPKLLIYDMSNLASGVPSRFSGSGSGTDFTLTISSLQPEDFATYYCMQWSGYPYTFGQGTKVEIK
notes: as for B8
B15: anti-IL-6 antibody, heavy chain WT, light chain S28R (antibody, IgG1, V domains shown)
VH: EVQLVESGGGLVQPGGSLRLSCAASGFTFSPFAMSWVRQAPGKGLEWVAKISPGGSWTYYSDTVTGRFTFSLDTSKSTAYLQMNSLRAEDTAVYYCARQLWGYYALDIWGQGTLVTVSS
VL: DIQLTQSPSSLSASVGDRVTITCSASIRVSYMYWYQQKPGKAPKLLIYDMSNLASGVPSRFSGSGSGTDFTLTISSLQPEDFATYYCMQWSGYPYTFGQGTKVEIK
notes: as for B8
B16: anti-IL-6 antibody, heavy chain Y103E, light chain WT (antibody, IgG1, V domains shown)
VH: EVQLVESGGGLVQPGGSLRLSCAASGFTFSPFAMSWVRQAPGKGLEWVAKISPGGSWTYYSDTVTGRFTFSLDTSKSTAYLQMNSLRAEDTAVYYCARQLWGEYALDIWGQGTLVTVSS
VL: DIQLTQSPSSLSASVGDRVTITCSASISVSYMYWYQQKPGKAPKLLIYDMSNLASGVPSRFSGSGSGTDFTLTISSLQPEDFATYYCMQWSGYPYTFGQGTKVEIK
notes: as for B8

In patent US20240209076A1 (KODIAK SCIENCES, published 2024) one finds Kd, koff and kon data, which are given here for 16 molecules.

As usually defined, the Kd is the concentration at which binding is half-saturated. The term koff denotes a measure of how fast the partners let go of each other. In general, kon refers to the rate constant with which the complex forms.

T1 sequence (P05231 30-212 limits assumed): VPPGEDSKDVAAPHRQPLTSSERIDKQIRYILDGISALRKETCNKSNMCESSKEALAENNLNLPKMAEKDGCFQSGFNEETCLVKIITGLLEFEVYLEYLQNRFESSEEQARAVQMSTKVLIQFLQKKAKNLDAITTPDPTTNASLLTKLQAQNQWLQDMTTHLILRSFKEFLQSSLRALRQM

The target in one experiment is human IL-6 (human, UniProt P05231 30-212). Description: SPR Biacore, supernatant, Protein A capture, 37 C. The protocol: Those four positions were selected based on their tolerance for mutations as observed in bacterial and mammalian screens. […] These cultures were centrifuged and supernatants containing secreted antibodies were harvested and diluted in HBS-EP+ running buffer (1:20 ratio).
Sequence of human IL-6 (P05231 30-212 limits assumed): as above
Antibodies were captured on a Protein A chip (GE) by injecting 1:20 cell supernatant dilutions at 10 μL/min for 60 seconds. […] The sensor chip was regenerated by a 60 seconds injection of 10 mM Glycine pH 1.7 at the flow rate of 50 μL/min. […] For this setup, 1 μg/mL of purified antibody was injected over a Protein A chip at 10 μL/min for 25 seconds. […] The sensor chip was regenerated by a 60 seconds injection of 10 mM Glycine pH 1.7 at flow rate of 50 μL/min. Data analysis for supernatant and purified samples were performed using BIAevaluation software (GE). All sensorgrams were double reference subtracted and fit using a 1:1 Langmuir binding model.
(In general: In SPR one partner is held on a chip, and binding of the other changes the refractive index at the surface.)
In turn, B1 displayed a Kd of 0.374 nM, a koff of 0.000548 s⁻¹ and a kon of 1.46e+06 M⁻¹ s⁻¹.

B2 displayed a dissociation constant Kd of 0.296 nM, a koff of 0.00048 s⁻¹ and an association rate constant (kon) of 1.62e+06 M⁻¹ s⁻¹.

As to B3, the Kd came to 0.35 nM, the dissociation rate constant (koff) came out at 0.00202 s⁻¹ and the on-rate (kon) was 5.77e+06 M⁻¹ s⁻¹.

Take B4: the Kd is 0.447 nM, the off-rate (koff) worked out at 0.000799 s⁻¹ and the kon amounted to 1.79e+06 M⁻¹ s⁻¹.

Molecule B5 returned a Kd of 0.184 nM, a koff of 0.000833 s⁻¹ and a kon of 4.52e+06 M⁻¹ s⁻¹.

As for B6, the Kd was determined as 0.393 nM, the koff was found to be 0.000654 s⁻¹ and the kon is 1.66e+06 M⁻¹ s⁻¹.

Take B7: binding was characterised by a dissociation constant (Kd) of 0.704 nM, the off-rate (koff) turned out to be 0.00145 s⁻¹ and the kon is 2.05e+06 M⁻¹ s⁻¹.

The next experiment concerns the target T1, recombinant human IL-6 (human, UniProt P05231 30-212).
T1 construct: Flowed in solution over the captured antibodies
The experiment can be described thus: SPR (Biacore), supernatant IgG on Protein A, 25 C. The protocol:
Antibodies were captured on a Protein A chip (GE) by injecting 1:20 dilution of cell supernatant at 10 μL/min for 60 seconds. […] The sensor chip was regenerated by a 60 seconds injection of 10 mM Glycine pH 1.7 at flow rate of 50 μL/min. […] For this setup, 1 μg/mL of purified antibody was injected over a Protein A chip at 10 μL/min for 25-28 seconds. Data analysis for supernatant and purified samples were performed using BIAevaluation software (GE). All sensorgrams were double reference subtracted and fit using a 1:1 Langmuir binding model.
Turning to B8, the Kd is 0.423 nM, the off-rate constant (koff) stood at 0.000231 s⁻¹ and the kon amounted to 546000 M⁻¹ s⁻¹.

Regarding B9, the Kd came to 0.433 nM, the koff stood at 0.000164 s⁻¹ and the kon came to 379000 M⁻¹ s⁻¹.

On to B10, for which the Kd is 1.34 nM, the dissociation rate constant (koff) amounted to 0.000703 s⁻¹ and the on-rate constant (kon) is 525000 M⁻¹ s⁻¹.

On to B11, for which the Kd worked out at 0.297 nM, the off-rate (koff) turned out to be 0.000219 s⁻¹ and the kon was 737000 M⁻¹ s⁻¹.

For the molecule B12, the dissociation constant (Kd) came to 0.36 nM, the koff came out at 0.000149 s⁻¹ and the kon is 415000 M⁻¹ s⁻¹.

B13: the Kd came out at 0.281 nM, the off-rate (koff) is 0.000223 s⁻¹ and the kon came to 793000 M⁻¹ s⁻¹.

For B14, the Kd amounted to 0.289 nM, the koff was determined as 0.000121 s⁻¹ and the on-rate (kon) was determined as 420000 M⁻¹ s⁻¹.

As to B15, the Kd came to 0.464 nM, the dissociation rate constant (koff) was determined as 0.000171 s⁻¹ and the kon amounted to 369000 M⁻¹ s⁻¹.

Consider B16, for which the Kd stood at 0.229 nM, the koff worked out at 0.000165 s⁻¹ and the kon amounted to 718000 M⁻¹ s⁻¹.
